Measured values published in the nanobody polyreactivity screen of Harvey et al. (2022).

Assay: yeast display, Sf9 membrane polyspecificity reagent, FACS + sequencing; frameworks hold sequencing errors
How it was run: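 Sorting gates, low and high (top ~1%), were placed on anti-HA fluorescence to track expression and on streptavidin fluorescence to track reagent binding. A clone's polyreactivity label is taken from the gate it came out of. The reagent was 10% biotinylated, detergent-solubilized Sf9 membrane, applied for 1 hour at 4 °C to galactose-induced yeast display cells.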

Sequence | polyreactivity (PSR sort gate)
QVQLVESGGGLVQAGGSLRLICAASGYTFSYYAMGWYRQAPGKERELVAAINYSGGRTYYADSVKGRFTISRDNAKNTVYLQMNSLKPDDTAVYYCAAYTRNGDYDYWGQGTQVTVSS | high polyreactivity
QVQILESGGGLVQAGGSLRLSCAASGRIFGGYAMGWYRQAPGKERELVAAIRWRGGRTYYADSVKGRFTISRDNAKNTVYLQMNSLKPEDTAVYYCAADYSFTGHRYTYGYWGQGTQVTVSS | high polyreactivity
QVQLVESGGGLVQAGCSLRLSCAASGGTFRSNAMGWYRKAPGKERELVAASTNYADSVKGRFTISRDNAKNTVYLQMNSLKPEDTAVYYCAAGPTDSQTGMDYWGQGTQVTVSS | low polyreactivity
QVQLVESGGGLVQAGGSLRLSCAASGFTFRSYAMGLYRQAPGKEREFVAAINGRSGSTYADSVKGRFTISRDNAKNTVYLQMISLKPEDTAVYYCAARVRRGSTQAQFYYWGQGTQVTVSS | high polyreactivity
QVQLVESGGGLVQAGGSLRLSCAASGRTFERNAMGWYRQAPGKERELVAAITWSGVSTYYADSVKGRFTISRDNAKNTVYLQMNSLKPEDTAVYYCAADWDWRFHRMNYWGQGTQVTVSS | low polyreactivity
QVQLQESGGGLVQEGGSLRLSCAASGNISPPADMGWYRQAHGKERELVASIGTGGTTNYADSVKGRFTISRDNAKNSVYLQMNSLKPDDTAVYYCAAVRYEYNPYDYWGQGTQVTVSS | low polyreactivity
QVQLVESGGGLVQAGGSLRLSCAASGFIFTYYGMGWYRQAPGKERELVAAITWSGASTYYADSVKGRFTISRDNAKNTVYLQMNSLKPEDTAVYYCNAGWDSGIVQSDETVYKYDYWGQGTQVTVSS | low polyreactivity
QVQLVESGGGLVQAGGSLRLSCAASGFIFYYYAMGWYRQAPGKERELVAAITSGGGTTYYADSVKGRFTISRDNAKNTVYLQMNSLKPEDTAVYYCNADSYYNSWFYYFDGFDGDYWGQGTQVTVSS | high polyreactivity
QVQLVESGGGLVQAGGSLRLSCAASGSIFTLYAMGWYRQAPGKERELVAAIDSGGNTNYADSVKGRFTISRDNAKNTVYLQMNSLKPEDTAVYYCAKRHATEFDYWGQGTQVTVSS | low polyreactivity
QVQLVESGGGLVQAGGSLRLSCAASGRIFQRNVMGWYRQAPGKERELVAAITGSGGSTYYADSLKGRFTISRDNAKNTVYLQMNSLKPEYTAVYYCAAKVYRGYDYWGQGTQVTVSS | high polyreactivity
QVQLVESGGGLVQAGGSLRLSCAASGRIFWTNDMGWYSKAPGKERELVAGITWRGGSTYYADSVKGRFTISRDNAKNTVYLQMNSLKPEDTAVYYCATRYRRVYTWYDYWGQGTQVTVSS | high polyreactivity
QVQLQESGGGQVQAGGSLRLSCAASGYISTHYFMGWYRQAPGKDREFVAGISNGSITNYADSVKGRFTISRDNARNTVYLQMNSLKPEDTAVYYGAAYEWTYVRFGYWGQGTQVTVSG | high polyreactivity
QVHLQDSGVGLVQAGGSLRLSCAASGSIFGSGSMGWFRQAPGKERELVATINNGSSTYYADSVKGRFTISRDNAKNTVYLQMNSLKPEDTAVYYCAVYLYRLTFFYYWGQGNQVTVSS | high polyreactivity
PVQLVESGGGLVQAGGSLRLSCAASGSTFPYYDMGWYRPAPGKEREMVAAISASTGSTYYADSVKGRFTISRDKAKITVYLHMYSLKPEVTAVYYCAAAYYYWYTAYDYWGQGTQVTVSS | high polyreactivity
QVQLVESGGGLVQAGGSLSLSCAASGGIFFIYTMGWKRQAPGKEREMVAAITSTGDTKYADSVKGRFTISRDNAKTTVYLQMNSLKPEDTAVYYCNKDNGTRGKGYDYWGQGTQVTVSS | low polyreactivity
QVQLVESGGGLVQAGGILRLSCAASGRTFYYYAMGWYRQAPGKERELVAAISWGGGRTYYADSVKGRFTISRDNAKNTVYLHMNSLKPEDTAVYYCDTTAYNGYDYWGQGTQVTVSS | high polyreactivity

Sequence | polyreactivity (PSR sort gate)
QVQLVESGGGIVQAGGSLRLSCAASGSTFGTYAMGWYRQAPGKEMELVAAISNSGGSTYYADSVKGRFTISRDNAKNTVYLLMNSLKQEDTAVYYCNTDGLVRNGPFYSWGQGTQVTVSS | low polyreactivity
QVQLVESGGGLVQAGGSLRLSCAASGIIFRGYDMGWYRQAPGKERELVAVITDDGSTYYADSVKGRFTISRDNAKNTVYLQMNSLKPEDTAVYYCNADYLLGHWIWYDYWGQGTQVTVSS | low polyreactivity
QVQLVESGGALVQAGGSLRLNCAASGRIFVYNDMGWYRQAPGNERDLVAAISSVGTTYYADSVKGRFTISRDNAKFTVYLQMKTLKPVETAVYDCDVTRYHSPPRYYFWGQGSQVTVSS | low polyreactivity
QVQLVESGGGLVQAGGSLRLSCAASGSTFVSNAMGWDRQAPGQEREVVAALSSGGSPYYADSVKGRFTISRDNAKNTVYLQMNRLKPEDTAVYYCNKRRGRKWPGNYSVVKLLMGYWGQGTQVTVSS | low polyreactivity
QVQLVESGGGLVQAGGSLRLSCAASGSTFWYYAMGWYRQAPGKERELVAAINGSGSRTYYADSVKGRFTISRDNAKNTVYLQMNSLKPEDTAVYYCAAGSLGRYYFKLDYWGQGTQVTVSS | high polyreactivity
QVQLVESGGGLVQAGGSLRLSCAASGFTFRLNAMGWYRQAPGKERELVAAITRSGGNTYYADSVKGRFTISRDNAKNTVYLQMNSLKPEDTAVYYCAVRQLDRRSPKYNYWGQGTQVTVSS | high polyreactivity
QVQLVESGGGLVQAGGSLRLSCAASGRIFGPYTMGWYIQAPGKEREFVAAITRRGGTTYYADSVKGRFTISRDNAKNTVYLQMNSLKAEDTGVYYCDAVGQKRSLGYSWGQGTQVTVSS | low polyreactivity
QVQLVESGGGLVQAGGSLRLSCAASGITFAPYAMGRYRQAPGKERELVAAIRGSTTSTYYADSVKGRFTISRDNAKNTVYLQINSLKPEDTAVYYCAAAGWKGLGRFYSWGQGTQVTLSS | high polyreactivity
QVQLVESGGGLVQAGGSLRLSCAASGSTFRFYTMGWYRQAPGKERELVATITSGGSTNYADSVKGRFTISRDNAKNTVYLQMNSLKPEDTAVYYCAASSVLTNHDYWGQGTQVTVSS | low polyreactivity
QVQLVESGGGLVQAGGSLRLSCAASGSIFGSYAMGWYRQAPGKERSTYYADSVKGRFTISRDNAKNTVYLQMNSLKPEDTAVYYCAADTYGYQGSAGGHWGQGTQVTVSS | low polyreactivity
QVQLVESGGGLVQAGGSLRLSCAASGSTFVRNVMGWYRQAPGKERELDAAITRSGDTTYYADSVKGRFTISRDNAKNTVYLQMNSLKPEDTAVYYCAKRTFVRRGSIYPIDDYWGQGTQVTVSS | low polyreactivity
QVQLVESGGGLVQAGGSLRLSCAASGSIFGKYAMGWYRQAPGKERELVAAISWSGGSTYYADSVKGRFTISRDNAKNTVYLQMNSLKPEDTAVYYCAATFRGTFRRIWTDTRAYDYWGQGTQVTVSS | high polyreactivity
QVQLVESGGGLVQAGGSLRLSCAASGRTFKYYAMGWYRQAPGKERELVATISFRGGSTYYADSVKGRFTISRDNAKNTVYLQMNSLKPEDTAVYYCAATTPYYTPRRRNDYWGQGTQVTVSS | high polyreactivity
QVQLVESGGGLVQAGGSLRLSCAASGRIFYVYAMGWYRQAPGKERELVAAISWSGGGTYYADSVKGRFTISRDNAKNTVYLQMNSLKPEDTAVYYCATVSGVPPGSHDYWGQGTQVTVSS | low polyreactivity
QVHLVESGGGLVQSGGSLRLTCAASGRTFSQYAMGWYRQAPWKERDLVAAISWSGGSTYYADSVKGRFTFSRDNAKNTVYLEMNSLKPEDTAVYYCAAVGKGSARSSYQVLYDYWGQGTQVNVSS | low polyreactivity
QVQLVESGGGLVQAGGSLCLSCAASGRTFIRNAMGWYRPAPGKERELVAAINSGGITNYADSVKGRFTISRDNAKNTVYLQMNSLKPEDTALYYCNARQVLYGLYLRAYPYEYWGQGTQVTVSS | low polyreactivity
